The labels stand for the following.
B1: Phosphatidylinositol-binding clathrin assembly protein (Rattus norvegicus (Rat)), O55012 (parent)
chain: MSGQSLTDRITAAQHSVTGSAVSKTVCKATTHEIMGPKKKHLDYLIQCTNEMNVNIPQLADSLFERTTNSSWVVVFKSLITTHHLMVYGNERFIQYLASRNTLFNLSNFLDKSGLQGYDMSTFIRRYSRYLNEKAVSYRQVAFDFTKVKRGADGVMRTMNTEKLLKTVPIIQNQMDALLDFNVNSNELTNGVINAAFMLLFKDAIRLFAAYNEGIINLLEKYFDMKKNQCKEGLDIYKKFLTRMTRISEFLKVAEQVGIDRGDIPDLSQAPSSLLDALEQHLASLEGKKIKDSTAASRATTLSNAVSSLASTGLSLTKVDEREKQAALEEEQARLKALKEQRLKELAKKPHTSLTTAASPVSTSAGGIMTAPAIDIFSTPSSSNSTSKLPNDLLDLQQPTFHPSVHAMSAAPQVASTWGDAVDDAIPSLNPFLTKSSGDVHLPISSDVSTFTTRTPTHEMFVGFSPSPVTQPHPSAGLNVDFESVFGNKSTNVAVDSGGGLLKPTVASQNQSLPVAKLPPNKLVSDDLDSSLANLVGNLGIGNGTTKNDVSCSQPGEKKLTGGSNWQPKVAPTTAWSAATMAPPVMAYPATTPTGMIGYGIPPQMGSVPVMTQPTLIYSQPVMRPPNPFGPVPGAQIQFM
partner: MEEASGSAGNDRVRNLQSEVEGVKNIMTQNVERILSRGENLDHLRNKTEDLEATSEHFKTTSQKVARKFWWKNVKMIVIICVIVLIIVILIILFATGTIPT
B2: Vesicle-associated membrane protein 8 (Mus musculus), O70404 (parent)
chain: B1 partner
partner: B1 chain

In the first experiment the parent is B1. The settings on record: with vamp8_mouse Vamp8, O70404.
In the case of M244K, the “effect of a mutation on the interaction” value is reported as “disrupting interaction”.

The variants in another experiment derive from B1. The settings on record: with vamp8_mouse Vamp8, O70404. This is another data set of the same source.
Take D224K: the “effect of a mutation on the interaction” value was “disrupting interaction”.

For I247D, the “effect of a mutation on the interaction” value is “disrupting interaction”.

On to F240A, for which the “effect of a mutation on the interaction” value is recorded as “disrupting interaction”.

Take L251S: the “effect of a mutation on the interaction” value is given as “disrupting interaction”.

For the variant L219S, the “effect of a mutation on the interaction” value is “disrupting interaction”.

A further experiment covers variants of B2. The following applies: with pical_rat Picalm, O55012.
K24A;M27A: the “effect of a mutation on the interaction” value is on record as “disrupting interaction”.

For L16P;V23P, the “effect of a mutation on the interaction” value was “disrupting interaction”.

These data come from IntAct's records for PubMed 22118466.
